According to patent publication US20100081624A1, “SELECTIVE PEPTIDES THAT INHIBIT THE BIOLOGICAL ACTIVITY OF CALCINEURIN” (Consejo Superior de Investigaciones Cientficas, priority 2005, published 2010):
No end group written: not given here.

Tests used:
human CN = target: T1, human CN (Homo sapiens, UniProt P63098+Q08209); test: Phosphatase activity assay of CN on pNPP; type: biochemical; conditions: pNPP substrate; 0.01 mM
T1 construct: made in house; host or cells: bacteria
Protocol: Phosphatase Activity Assay of CN on pNPP (Paranitrophenylphosphate).
The quantity of the product of the enzymatic reaction at basic pH (paranitrophenolate=PNP) was measured by absorbance at 405 nm, converting this numerical value to a concentration by means of interpolation from a straight-line PNP pattern.

[1] = system: nuclear translocation of NFATc2 in HeLa cells; test: Subcellular localisation of NFATc2 in transfected HeLa cells (immunofluorescence); type: cell-based; conditions: HeLa co-transfected with HA-NFATc2; calcium ionophore 30 min, FIG. 8B
Protocol: The HeLa cells were transfected as described in the previous section using 1.2 μg of the GFP-peptide expression plasmids with 40 ng of pEF-BOS HA-NFATc2. Two hours before the stimulation, the culture medium was replaced with DMEM+1% FBS. After stimulating during 30 min. with calcium ionophore A23187 (1 μm) and CaCl2 (3 mM), the cells were fixed at ambient temperature during 10 min. with a 10% solution of formaldehyde in PBS containing 4% saccharose. Subsequently, they were washed three times with PBS and were permeabilised at ambient temperature during 10 min. with a solution of PBS with 0.25% of Triton X-100. The cells were subsequently incubated during 20 min. with a blocking buffer (10% BSA in PBS) and subsequently with a 1:500 solution of the 12CA5 antibody (anti-HA) during one hour. The subcellular localisation of the NFATS was detected using a fluorescence microscope (Axiovert-200, Zeiss) using a mouse anti-IgG conjugated with the Alexa 594 fluorochrome (Molecular Probes) as a secondary antibody. The percentage of cells with nuclear or cytosolic distribution of NFAT was calculated using not less than 130 positive cells per transfection.

[2] = system: NFATc2 dephosphorylation in HeLa cells; test: NFATc2 dephosphorylation in transfected HeLa cells (Western blot); type: cell-based; conditions: HeLa co-transfected with HA-NFATc2; PMA + calcium ionophore 1 hour, FIG. 8A
Protocol: The HeLa cells were cultivated in Dulbecco medium modified by Eagle (DMEM) (Gibco) completed with 10% bovine foetal serum (FBS) (Sigma). The day prior to transfection, the cells were seeded in 6-well plates in order to reach an 80% confluence at the moment of transfection. The cells were transfected with 18 ng of pEF-BOS HA-NFATc2 plus 1.1 μg of the GFP-peptide plasmids with 4 μl of Plus reagent plus 6 μl of Lipofectamine reagent (Invitrogen) for 3 hours in 1 ml of OPTIMEM medium (Gibco). By means of flow cytometry, the transfection efficiency and the percentage of cells which expressed GFP were quantified. Similar transfection efficiencies were obtained for the different constructs and in independent experiments.
Twenty-four hours after the transfection, the HeLa culture medium was replaced by DMEM+1% FBS. After a further two hours, the cells were stimulated during 1 hour using 20 ng/ml of PMA (phorbol 12 myristrate 13 acetate) (Sigma) plus 1 μM of calcium ionophore A23187 (Sigma) and 3 mM of CaCl2. […] After three washes with PBS-T and one additional wash with H2O, the antibody bound to the membranes was detected by means of the ECL system (Amersham Biosciences).

CN (Calcineurin) = target: T2, CN (Calcineurin) (UniProt P48452+P63098); test: Pull-down of CN by GST-peptide fusion proteins (FIG. 3); type: binding; conditions: Western blot
T2 construct: purchased Sigma
Protocol: (§1) The GST fusion proteins were expressed in the protease-deficient strain of E. coli BL2(DE3). They were purified using the glutathione (GSH)-Sepharose B beads reagent (Amersham Biosciences). The binding of CN to these GST fusion proteins was used to carry out pull-down tests, which were performed as explained below. A variable amount of the beads which contained the GST fusion proteins fused to the regulatory NFAT domains (1-2 μg) or to the peptides (10-30 μg). These were washed twice with the binding buffer (20 mM Tris pH 8, 100 mM NaCl, 1.5 mM CaCl2, 6 mM MgCl2, 1 mM PMSF, 1 μm DTT, 1 μg/ml of aprotinine, 1 μg/ml of pepstatin, 100 μM of benzamidine and 0.2% of Triton X-100) and were subsequently incubated during 30 min. in a rotary shaker at 4° C. with a solution of 20 nM of Calcineurin (Sigma) plus 600 nM of Calmodulin (Sigma) in a binding buffer with or without the corresponding peptide. Subsequently, the samples were centrifuged briefly at 4° C. Laemmli buffer was added to the supernatants (unbound fraction), which were set aside for later analysis. […] The Calcineurin was detected by Western blot using an anti-CnA monoclonal mouse antibody (clone G182-1847, PharMingen). Where indicated, the amount of CN bound to the GST fusion proteins was quantified by densitometry using the Quantity One program (BIO-RAD).

[3] = target: T3, CN-NFATc2 interaction (GST-NFATc2) (Homo sapiens, UniProt P63098+Q08209); test: In vitro competition of CN binding to GST-NFATc2 by synthetic peptides
T3 construct: purchased Sigma
Protocol: The GST fusion proteins were expressed in the protease-deficient strain of E. coli BL2(DE3). They were purified using the glutathione (GSH)-Sepharose B beads reagent (Amersham Biosciences). The binding of CN to these GST fusion proteins was used to carry out pull-down tests, which were performed as explained below. A variable amount of the beads which contained the GST fusion proteins fused to the regulatory NFAT domains (1-2 μg) or to the peptides (10-30 μg). These were washed twice with the binding buffer (20 mM Tris pH 8, 100 mM NaCl, 1.5 mM CaCl2, 6 mM MgCl2, 1 mM PMSF, 1 μm DTT, 1 μg/ml of aprotinine, 1 μg/ml of pepstatin, 100 μM of benzamidine and 0.2% of Triton X-100) and were subsequently incubated during 30 min. in a rotary shaker at 4° C. with a solution of 20 nM of Calcineurin (Sigma) plus 600 nM of Calmodulin (Sigma) in a binding buffer with or without the corresponding peptide. Subsequently, the samples were centrifuged briefly at 4° C. Laemmli buffer was added to the supernatants (unbound fraction), which were set aside for later analysis. The beads were washed five times with cold, recently prepared binding buffer and Laemmli buffer was added; the samples were boiled to separate the bound proteins (bound fraction). The bound and unbound fractions were loaded onto 10% SDS-polyacrylamide gels and were separated by electrophoresis under reducing conditions. The Calcineurin was detected by Western blot using an anti-CnA monoclonal mouse antibody (clone G182-1847, PharMingen). Where indicated, the amount of CN bound to the GST fusion proteins was quantified by densitometry using the Quantity One program (BIO-RAD).

[4] = target: T4, CN-NFATc1 interaction (GST-NFATc1) (Homo sapiens, UniProt P63098+Q08209); test: In vitro competition of CN binding to GST-NFATc1 by synthetic peptides
T4 construct: purchased Sigma
Protocol: as §1

[5] = target: T5, GST-LxVPc1-CN interaction (Homo sapiens, UniProt P63098+Q08209); test: Cross-competition of GST-LxVPc1-CN interaction (FIG. 7); type: binding; conditions: free competitor peptide, VIVIT 12 μM
T5 construct: purchased Sigma
Protocol: as §1

[6] = target: T6, CN (Calcineurin) phosphatase activity on RII phosphopeptide (Homo sapiens, UniProt P63098+Q08209); test: Phosphatase activity assay of CN on RII substrate; type: biochemical; conditions: in vitro, FIG. 9
T6 construct: purchased Biomol
Protocol: The effect of the peptides mentioned (Example 7, FIG. 9) on the enzymatic activity of CN on the RII peptide was analysed using the “Biomol Green Calcineurin” assay kit by Biomol in accordance with the manufacturer's instructions. The combination of CsA (Sandoz) plus cyclophilin (CyP) (Sigma) was used to inhibit Calcineurin activity in vitro.

[7] = summary of LxVP and PxIxIT peptides

T1 sequence (P63098 whole entry, other chains not shown): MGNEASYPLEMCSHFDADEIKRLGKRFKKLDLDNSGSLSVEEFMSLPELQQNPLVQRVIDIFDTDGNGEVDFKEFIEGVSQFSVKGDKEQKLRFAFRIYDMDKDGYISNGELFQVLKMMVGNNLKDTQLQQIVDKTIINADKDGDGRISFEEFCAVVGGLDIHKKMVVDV

CypA: cyclophilin A, immunophilin, used separately as negative control
% CN activity (human CN): 103.3 ± 7.1%

GFP-LxVPc1: GFP fusion protein with the LxVP peptide of NFATc1, expressed in HeLa cells
cells with cytosolic NFATc2 staining [1]: 77% | effect on induced NFATc2 dephosphorylation [2]: blocked induced NFATc2 dephosphorylation

GFP-LxVPc2: GFP fusion protein with the LxVP peptide of NFATc2 (SILLVPPTWPKPLVP; also: GFP fusion protein)
effect on induced NFATc2 dephosphorylation [2]: had no effect

GST-LxVPc2: GST protein fused with the LxVP motif of NFATc2 (SILLVPPTWPKPLVP; also: fused to GST protein)
amount of CN bound to GST-peptide fusion protein (CN (Calcineurin)): incapable of binding CN

LxVPc2: NFATc2-specific LxVP peptide (SILLVPPTWPKPLVP)
competition of CN binding to GST-NFATc2 ([3]; 100 μM peptide, FIG. 4B): incapable of affecting the binding | competition of CN binding to GST-NFATc2 ([3]; competitor peptides at 32 μM or 200 μM, FIG. 4A): incapable of competing the binding of NFATc2 to CN | competition of CN binding to GST-NFATc2 ([3]; concentrations as high as 300 μM, FIG. 4B): partial inhibition | competition of in vitro interaction of CN with NFATc2, overall [3, 7]: did not efficiently compete | competition of GST-NFATc1 interaction with CN ([4]; 32 μM peptide, FIG. 6A): not capable of altering the NFAT-CN binding | competition of in vitro interaction of CN with NFATc1, overall [4, 7]: did not efficiently compete

PxIxITc1: PxIxIT peptide corresponding to NFATc1 (ALESPRIEITSCLGL)
competition of CN binding to GST-NFATc2 ([3]; 100 μM peptide, FIG. 4B): efficiently blocked the interaction of CN with NFATc2

PxIxITc2: PxIxIT peptide corresponding to NFATc2 (SGLSPRIEITPSHEL)
competition of binding of CN to GST-LxVPc1 [5]: competed the binding of CN to GST-LxVPc1 | competition of GST-NFATc2 binding to CN ([3]; 50 μM peptide, dose-dependent competition, FIG. 5): only a partial inhibiting effect | competition of CN binding to GST-NFATc2 ([3]; 100 μM peptide, FIG. 4B): efficiently blocked the interaction of CN with NFATc2 | effect on phosphatase activity of CN on RII peptide [6]: failed in the inhibition of phosphatase activity
